The results in this text go back to PMC6632053, “Incorporation of Putative Helix-Breaking Amino Acids in the Design of Novel Stapled Peptides: Exploring Biophysical and Cellular Permeability Properties” (Molecules, 2019).

Bridge positions count the residues as written; N and C are the ends. Square brackets hold non-standard residues; d marks the D form. Primed or numbered codes have the meaning given here. Lys(N3) = [N-]=[N+]=NCCCC[C@H](N)C(=O)O; NMeQ = CN[C@@H](CCC(N)=O)C(=O)O; R8 = C=CCCCCCC[C@@](C)(N)C(=O)O; dCba = N[C@H](CC1CCC1)C(=O)O; S5 = C=CCCC[C@](C)(N)C(=O)O; NMeA = CN[C@@H](C)C(=O)O; Cba′ = not defined here; Aib = CC(C)(N)C(=O)O; βAla = NCCC(=O)O

In the first test the target is human Mdm2 (1–125) (human). Description: cell-based or functional assay.
Details: not given
Consider Ac-LTF[R8]EYWQL[Cba′][S5]SAA-NH2 (staple 4-11; reading uncertain) [MP-292], for which the “EC50, p53 responsive β-lactamase reporter in HCT116 cells, 2% serum (data not shown)” value was 700 nM and the “EC50, p53 responsive β-lactamase reporter in HCT116 cells, 10% serum (data not shown)” value was 4200 nM.

In a further test the target is human Mdm2 (1–125) (human). Nature of the test: cell-based or functional assay.
Details: not given
The source holds these as a separate data set.
Consider Ac-LTF[R8]EYWQL[Cba′][S5]SAA-NH2 (staple 4-11; reading uncertain) [MP-292], for which the “EC50, p53 responsive β-lactamase reporter in HCT116 cells (column Cellular)” value is 540 nM. Still for that read-out and setting: with Ac-LTF[R8]EYAQL[Cba′][S5]SAA-NH2 (staple 4-11; reading uncertain) [MP-292 W7A] the figure was 8800 nM.

The target of another test is T1, human Mdm2 (1–125) (human).
T1 construct: Mdm2, human, residues 1-125; the stretch after the TEV site ENLYFQG of the fusion protein; No cleavage of the tags is described, so it is open whether the fusion or cleaved Mdm2 stood in the FP and ITC assays; also called purified recombinant human Mdm2 protein (amino acids 1–125); source: E. coli BL21 (DE3) Rosetta T1R, purified (Ni-NTA, gel filtration)
T1 sequence (chain, as listed by the source): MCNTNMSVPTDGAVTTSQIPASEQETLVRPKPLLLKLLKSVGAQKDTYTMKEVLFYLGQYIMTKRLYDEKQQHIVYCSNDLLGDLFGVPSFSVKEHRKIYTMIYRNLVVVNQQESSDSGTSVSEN
Description: fluorescence polarisation; competition: unlabeled peptide titrated against the complex of 250 nM Mdm2 (1–125) and 50 nM FAM-labeled 12/1 peptide; apparent Kd from the tracer's Kd of […] nM; PBS pH 7.4, 0.1% Tween 20; triplicate. The following applies: both partners purified. In general terms: In fluorescence polarisation assays a small probe gives low polarisation when free and higher when bound to something large.
In the case of Ac-[Lys(N3)][βAla]PTF[R8]EYWAQ[Cba′][S5]SAA-NH2 (staple 6-13; reading uncertain) [MP-081 L1P], the Kd worked out at 21.9 nM. Consider Ac-[Lys(N3)][βAla]LTF[R8]EYWAG[Cba′][S5]SAA-NH2 (staple 6-13; reading uncertain) [MP-081 Q9G], for which the Kd was determined as 42 nM.

For Ac-[Lys(N3)][βAla]LTF[R8]EYWAP[Cba′][S5]SAA-NH2 (staple 6-13; reading uncertain) [MP-081 Q9P], the Kd stood at 77.1 nM. On to Ac-[Lys(N3)][βAla]LTF[R8]GYWAQ[Cba′][S5]SAA-NH2 (staple 6-13; reading uncertain) [MP-081 E5G], for which the Kd came to 61.8 nM. On to Ac-[Lys(N3)][βAla]LTF[R8]EYWAQ[Cba′][S5]S[NMeA]A-NH2 (staple 6-13; reading uncertain) [MP-081 A13(N-methyl L-Ala)], for which the Kd turned out to be 10 nM. Consider Ac-[Lys(N3)][βAla]LTF[R8]EYWA[NMeQ][Cba′][S5]SAA-NH2 (staple 6-13; reading uncertain) [MP-081 Q9(N-methyl L-Gln)], for which the Kd was 211 nM.

For Ac-[Lys(N3)][βAla]LTF[R8]EYWAQ[Cba′][S5]SAA-NH2 (staple 6-13; reading uncertain) [MP-081], the Kd stood at 19 nM. Consider Ac-[Lys(N3)][βAla]LTF[R8]EYW[NMeA]Q[Cba′][S5]SAA-NH2 (staple 6-13; reading uncertain) [MP-081 A8(N-methyl L-Ala)], for which the Kd came out at 671 nM. Take Ac-[Lys(N3)][βAla]GTF[R8]EYWAQ[Cba′][S5]SAA-NH2 (staple 6-13; reading uncertain) [MP-081 L1G]: the Kd was 22.1 nM.

A further test addresses T1, human Mdm2 (1–125). Nature of the test: ITC; 100–200 µM peptide titrated into 20 µM Mdm2 (1–125), 40 injections of 1 µL (reverse titration for insoluble peptides); 1× PBS pH 7.2, 3% DMSO, 0.001% Tween-20; duplicates. The following applies: both partners purified.
Usually stoichiometry N stands for the number of molecules, sites or subunits per partner or assembly. With Ac-LTF[R8]EYWQL[Cba′][S5]SAA-NH2 (staple 4-11; reading uncertain) [MP-292], the “stoichiometry N” value was 1.

For a further test, the target named is T1, human Mdm2 (1–125). Nature of the test: fluorescence polarisation; competition: unlabeled peptide titrated against the complex of 250 nM Mdm2 (1–125) and 50 nM FAM-labeled 12/1 peptide; apparent Kd from the tracer's Kd of […] nM; PBS pH 7.4, 0.1% Tween 20; triplicate. The following applies: both partners purified. The source holds these as a separate data set.
As for Ac-[dL]TF[R8]EYWQL[Cba′][S5]SAA-NH2 (staple 4-11; reading uncertain) [MP-292 L1(D-Leu)], the Kd turned out to be 31 nM. Take Ac-LTF[Aib]EYWQL[Cba′][Aib]SAA-NH2 (reading uncertain) [Linear Parent (MP-189)]: the Kd was 43.1 nM.

Ac-LTF[R8]EYWQL[dCba][S5]SAA-NH2 (staple 4-11) [MP-292 Cba10(D-Cba)]: the Kd is 1650 nM. With Ac-LTF[R8]EYWQA[Cba′][S5]SAA-NH2 (staple 4-11; reading uncertain) [MP-292 L9A], the Kd was found to be 12 nM. Turning to Ac-LTF[R8]EYWQL[Cba′][S5]SA[dA]-NH2 (staple 4-11; reading uncertain) [MP-292 A14(D-Ala)], the Kd is 18 nM. Ac-LTF[R8]EYW[dQ]L[Cba′][S5]SAA-NH2 (staple 4-11; reading uncertain) [MP-292 Q8(D-Gln)]: the Kd turned out to be 22 nM. For the molecule Ac-LTF[R8]EYWQL[Cba′][S5][dS]AA-NH2 (staple 4-11; reading uncertain) [MP-292 S12(D-Ser)], the Kd was 8.6 nM. In the case of Ac-LTF[R8]EYWQL[Cba′][S5]S[dA]A-NH2 (staple 4-11; reading uncertain) [MP-292 A13(D-Ala)], the Kd was 17 nM. Turning to Ac-LTF[R8]EYWQL[Cba′][S5]SAA-NH2 (staple 4-11; reading uncertain) [MP-292], the Kd was determined as 18.6 nM. With Ac-[dL]TF[Aib]EYWQL[Cba′][Aib]SAA-NH2 (reading uncertain) [Linear L1(D-Leu)], the Kd came to 277 nM.

Ac-LTF[R8]EYWQ[dL][Cba′][S5]SAA-NH2 (staple 4-11; reading uncertain) [MP-292 L9(D-Leu)]: the Kd was 30 nM.

In the case of Ac-LTF[Aib][dE]YWQL[Cba′][Aib]SAA-NH2 (reading uncertain) [Linear E5(D-Glu)], the Kd was 135 nM. Still for that read-out and setting: the value for Ac-LTF[R8]EYWAL[Cba′][S5]SAA-NH2 (staple 4-11; reading uncertain) [MP-292 Q8A] was 26.5 nM; that for Ac-LTF[R8]EYWQL[Cba′][S5]AAA-NH2 (staple 4-11; reading uncertain) [MP-292 S12A] was 20.4 nM. Consider Ac-L[dT]F[R8]EYWQL[Cba′][S5]SAA-NH2 (staple 4-11; reading uncertain) [MP-292 T2(D-Thr)], for which the Kd came to 136 nM. For the molecule Ac-LTF[R8]EYAQL[Cba′][S5]SAA-NH2 (staple 4-11; reading uncertain) [MP-292 W7A], the Kd was determined as 5090 nM. Regarding Ac-LTF[R8]EAWQL[Cba′][S5]SAA-NH2 (staple 4-11; reading uncertain) [MP-292 Y6A], the Kd turned out to be 38.9 nM.

Take Ac-LTF[R8]E[dY]WQL[Cba′][S5]SAA-NH2 (staple 4-11; reading uncertain) [MP-292 Y6 (D-Tyr)]: the Kd worked out at 286 nM.

As for Ac-LTF[R8]EY[dW]QL[Cba′][S5]SAA-NH2 (staple 4-11; reading uncertain) [W6(D-Trp) (MP-384)], the Kd is 30 nM. Take Ac-LT[dF][R8]EYWQL[Cba′][S5]SAA-NH2 (staple 4-11; reading uncertain) [MP-292 F3(D-Phe)]: the Kd stood at 6480 nM. Ac-LTF[R8][dE]YWQL[Cba′][S5]SAA-NH2 (staple 4-11; reading uncertain) [MP-292 E5(D-Glu)]: the Kd is 32 nM. Regarding Ac-LTF[Aib]EYWQ[dL][Cba′][Aib]SAA-NH2 (reading uncertain) [Linear L9(D-Leu)], the Kd is 88 nM.
